Test results as given in US20100216663A1.

Target: human IgE (human) (UniProt P01854)
Assay: Biacore, human IgE on CM5 chip, sample protein in flow

Sequence of human IgE (human) (P01854 other isoform, or with tags, fused parts or gaps): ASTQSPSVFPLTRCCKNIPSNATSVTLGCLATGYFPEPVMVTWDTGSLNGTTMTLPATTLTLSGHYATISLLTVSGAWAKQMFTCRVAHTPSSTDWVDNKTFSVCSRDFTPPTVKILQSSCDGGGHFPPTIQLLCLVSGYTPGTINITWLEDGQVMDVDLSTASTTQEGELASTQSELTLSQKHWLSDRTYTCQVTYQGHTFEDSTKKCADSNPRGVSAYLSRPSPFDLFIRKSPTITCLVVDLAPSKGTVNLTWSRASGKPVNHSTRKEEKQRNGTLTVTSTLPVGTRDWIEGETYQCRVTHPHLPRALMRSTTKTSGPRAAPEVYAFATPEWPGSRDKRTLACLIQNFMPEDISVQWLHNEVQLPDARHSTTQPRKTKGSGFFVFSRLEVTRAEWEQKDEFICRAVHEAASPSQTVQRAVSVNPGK

Kd: 450 nM
Substance: recombinant human FcERI protein (from UniProt P12319 26-205) (receptor)
